Patent US6899879

Target: human CD40 antigen on the surface of human B cells (human) (UniProt P25942)
Assay: cell-based or functional assay

Sequence of UniProt P25942 (P25942 21-277): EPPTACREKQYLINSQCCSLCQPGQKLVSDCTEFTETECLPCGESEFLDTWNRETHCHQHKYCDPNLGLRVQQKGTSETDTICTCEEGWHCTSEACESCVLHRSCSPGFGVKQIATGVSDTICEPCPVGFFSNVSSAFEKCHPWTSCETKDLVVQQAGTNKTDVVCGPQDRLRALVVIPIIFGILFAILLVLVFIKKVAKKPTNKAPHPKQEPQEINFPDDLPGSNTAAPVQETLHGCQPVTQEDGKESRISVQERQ

- 50% of maximal inhibition of human T-cell induced immunoglobulin production by human B cells: 30 ng/mL
- concentration giving complete inhibition of EL4B5-induced human B-cell proliferation: 10 ng/mL
- half-maximal inhibition of EL4B5-induced human B-cell proliferation: 1 ng/mL
- percentage of inhibition of immunoglobulin production by human B cells: 40 to 70%
Substance: anti-CD40 monoclonal antibody 5D12
